Test results reported in US20230357447A1 (JANUX THERAPEUTICS, published 2023).

Tests used:
[1] = molecular target: T1, Anti-CD28 scFv (VH-linker 1-VL) (biotinylated for capture on neutravidin plates); experiment: phage ELISA, scFv captured on plate;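 further: crude clonal phage supernatants added to wells preincubated with soluble CD28 or with blocking buffer only, bound phage read out by HRP-linked anti-M13 antibody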
Procedure: (§1) Clonal phage were harvested as crude supernatants and screened via standard enzyme linked immunosorbent assays (ELISAs). […] Prior to the addition of clonal phage, wells were incubated with blocking buffer and CD28 soluble protein or blocking buffer alone. Without washing or aspirating, clonal phage supernatants were then added to the wells and incubated for a short time. Wells were then washed followed by detection of bound phage using a horse radish peroxidase conjugated anti-M13 antibody.

[2] = molecular target: T1, Anti-CD28 scFv (VH-linker 1-VL); experiment: phage ELISA, scFv captured on plate, competitor soluble CD28;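 further: crude clonal phage supernatants added to wells pre-incubated with soluble CD28 or with blocking buffer only as control, bound phage read out with HRP-linked anti-M13 antibody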
Procedure: as §1

T1 sequence (scFv, as listed by the source): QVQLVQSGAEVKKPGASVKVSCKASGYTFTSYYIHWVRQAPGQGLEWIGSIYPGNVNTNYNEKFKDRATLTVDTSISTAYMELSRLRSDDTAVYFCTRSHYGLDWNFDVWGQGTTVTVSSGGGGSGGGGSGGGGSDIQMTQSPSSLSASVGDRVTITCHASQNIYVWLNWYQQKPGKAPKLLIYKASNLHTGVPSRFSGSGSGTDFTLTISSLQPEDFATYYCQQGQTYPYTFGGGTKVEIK

Binder	Phage binding ELISA CD28 scFv signal [1]	Phage binding ELISA CD28 scFv signal in presence of CD28 [2]
MDWCPRAMWNHCFN [Phage-198]	2.33	0.426
MHWCPRSLWNECYF [Phage-182]	0.456	0.115
IDWCPRDLWALCFN [Phage-183]	0.37	0.129
MDWCPKHLWNECFN [Phage-174]	0.663	0.105
VDWCPRYLWHVCYN [Phage-189]	0.065	0.061
MDWCPKDLWHECFN [Phage-168]	0.762	0.1
MDWCPKFLWDLCFA [Phage-164]	1.07	0.139
MSWCPQDLWHVCFN [Phage-167]	0.86	0.112
MDWCPRDMWAECFF [Phage-190]	2.69	2.26
MSWCPRDMWFYCYA [Phage-203]	2.25	0.174
QDWCPTYLWHHCFN [Phage-186]	0.123	0.122
MDWCPAYLWAECFS [Phage-175]	0.64	0.12
MDWCPRNMWAQCFA [Phage-199]	2.31	0.209
MDWCPPYLWYECFA [Phage-172]	0.692	0.094
MYWCPRDLWDVCFN [Phage-181]	0.512	0.102
MFWCPFDMWHFCFN [Phage-200]	2.29	0.469
MDWCPWILWNECFN [Phage-179]	0.581	0.137
IHWCPINMWDKCYN [Phage-206]	2.08	0.203
DVWCPKYMWSLCFN [Phage-192]	2.53	0.418

Binder	Phage binding ELISA CD28 scFv signal [1]	Phage binding ELISA CD28 scFv signal in presence of CD28 [2]
MDWCPVSLWDHCFN [Phage-177]	0.616	0.1
MDWCPMDMWVNCFN [Phage-193]	2.52	0.277
MDWCPSYLWDQCFF [Phage-188]	0.083	0.079
MDWCPMNLWSECFN [Phage-173]	0.67	0.124
MHWCPINLWNECFS [Phage-184]	0.316	0.098
MDWCPRHMWYECFF [Phage-197]	2.34	0.298
MDWCPRDMWDQCFD [Phage-201]	2.29	0.119
MDWCPSDMWHECYA [Phage-194]	2.47	0.2
MDWCPKHMWFMCFN [Phage-195]	2.4	0.372
MDWCPFYLWDECFL [Phage-165]	1.02	0.141
MFWCPMDMWDQCFN [Phage-202]	2.26	0.207
MDWCPRDMWYECFN [Phage-191]	2.56	0.235
MFWCPRYLWHECFN [Phage-163]	1.08	0.175
IGKLTLCLNADLVI [Phage-187]	0.116	0.1
MNWCPSHLWHMCYF [Phage-171]	0.702	0.192
MDWCPSDLWHECFH [Phage-176]	0.629	0.164
MNWCPSDLWHLCFN [Phage-170]	0.739	0.131
MDWCPRYMWYQCFS [Phage-196]	2.36	0.357
MDWCPTDMWHHCFL [Phage-205]	2.2	0.126
